Experimental data taken from paper PMC4359370.
Blank lines part the entries; values can stand above or below the substance they belong to.

Tests used:
[1] = target: wild-type POT1-TPP1 complex (POT1-TPP1N) (human) (UniProt Q9NUX5)
[2] = target: POT1-TPP1 E169K complex (wild-type POT1 with TPP1N E169K) (human) (UniProt Q9NUX5)
[3] = target: POT1-TPP1 E215K complex (wild-type POT1 with TPP1N E215K) (human) (UniProt Q9NUX5)
[4] = target: POT1-TPP1 E169K complex (wild-type POT1 with TPP1N E169K) (human) (UniProt Q9NUX5); remark: listed apart in the source
[5] = target: POT1-TPP1 E215K complex (wild-type POT1 with TPP1N E215K) (human) (UniProt Q9NUX5); remark: listed apart in the source
[6] = target: wild-type POT1-TPP1 complex (POT1-TPP1N) (human) (UniProt Q9NUX5); remark: listed apart in the source
GFP-TPP1-OB-LacI (human) = test: LacI-LacO tethering assay (co-localisation of GFP and mCherry foci); GFP-TPP1-OB-LacI tethered to a single LacO array on chromosome 1 of U2OS 2-6-3 cells, co-transfected with mCherry-hTERT and hTR; fixed cells, intrinsic fluorescence; fraction of nuclei with co-localised foci (n = 3, 117-176 nuclei total)
GFP-TPP1-OB-LacI (human), sequence (Q96AP0 whole entry): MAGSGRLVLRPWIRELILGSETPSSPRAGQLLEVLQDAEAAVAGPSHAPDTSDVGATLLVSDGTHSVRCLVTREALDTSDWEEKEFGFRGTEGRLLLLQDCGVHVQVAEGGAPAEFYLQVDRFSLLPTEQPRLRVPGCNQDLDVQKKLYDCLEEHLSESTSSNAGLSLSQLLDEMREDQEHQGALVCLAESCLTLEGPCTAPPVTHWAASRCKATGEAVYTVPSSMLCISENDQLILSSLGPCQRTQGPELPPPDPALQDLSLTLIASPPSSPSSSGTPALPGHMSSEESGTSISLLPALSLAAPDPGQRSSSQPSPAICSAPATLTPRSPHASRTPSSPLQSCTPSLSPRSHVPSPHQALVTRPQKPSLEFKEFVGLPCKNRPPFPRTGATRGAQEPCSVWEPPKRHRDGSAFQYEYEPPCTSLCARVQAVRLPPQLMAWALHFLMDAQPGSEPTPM

Substance: hTERT K78A telomerase (ZZ-TEV-3xFlag-hTERT K78A with hTR) (from UniProt O14746 1-1132) (enzyme)
RAP stimulation by PT % of WT (direct telomerase activity assay) [1]: 88 % of WT

Substance: hTERT R72E telomerase (ZZ-TEV-3xFlag-hTERT R72E with hTR) (from UniProt O14746 1-1132) (enzyme)
RAP stimulation by PT % of WT (direct telomerase activity assay) [1]: 91 % of WT

Substance: hTERT R87E;R91E;K94E telomerase (ZZ-TEV-3xFlag-hTERT with hTR) (from UniProt O14746 1-1132) (enzyme)
RAP stimulation by PT % of WT (direct telomerase activity assay) [1]: 61 % of WT

Substance: hTERT R120E telomerase (ZZ-TEV-3xFlag-hTERT R120E with hTR) (from UniProt O14746 1-1132) (enzyme)
RAP stimulation by PT % of WT (direct telomerase activity assay) [1]: 55 % of WT

Substance: mCherry-hTERT K78E (with hTR) (from UniProt O14746 1-1132) (enzyme)
fraction of TPP1-OB-fold domain foci showing telomerase signal (GFP-TPP1-OB-LacI (human)): 55%

Substance: mCherry-hTERT R132E (with hTR) (from UniProt O14746 1-1132) (enzyme)
fraction of TPP1-OB-fold domain foci showing telomerase signal (GFP-TPP1-OB-LacI (human)): 30%

Other lines, results leading:

RAP stimulation by PT % of WT (direct telomerase activity assay) [1]: 68 % of WT | RAP stimulation by POT1-TPP1 relative to wild-type telomerase and wild-type TPP1 (direct telomerase activity assay) [2]: < 24% | RAP stimulation by POT1-TPP1 relative to wild-type telomerase and wild-type TPP1 (direct telomerase activity assay) [3]: 98%
Substance: hTERT K78E telomerase (ZZ-TEV-3xFlag-hTERT K78E with hTR) (from UniProt O14746 1-1132) (enzyme)

RAP stimulation by PT % of WT (direct telomerase activity assay) [1]: 38 % of WT
Substance: hTERT K78E;R120E telomerase (ZZ-TEV-3xFlag-hTERT with hTR) (from UniProt O14746 1-1132) (enzyme)

RAP stimulation by PT % of WT (direct telomerase activity assay) [1]: 18 % of WT | RAP stimulation by POT1-TPP1 relative to wild-type telomerase and wild-type TPP1 (direct telomerase activity assay) [2]: < 23% | RAP stimulation by POT1-TPP1 relative to wild-type telomerase and wild-type TPP1 (direct telomerase activity assay) [3]: < 23%
Substance: hTERT K78E;R132E telomerase (ZZ-TEV-3xFlag-hTERT with hTR) (from UniProt O14746 1-1132) (enzyme)

RAP stimulation by PT % of WT (direct telomerase activity assay) [1]: 24 % of WT | RAP stimulation by POT1-TPP1 relative to wild-type telomerase and wild-type TPP1 (direct telomerase activity assay) [2]: < 23% | RAP stimulation by POT1-TPP1 relative to wild-type telomerase and wild-type TPP1 (direct telomerase activity assay) [3]: < 23%
Substance: hTERT R132E telomerase (ZZ-TEV-3xFlag-hTERT R132E with hTR) (from UniProt O14746 1-1132) (enzyme)

RAP stimulation by PT % of WT (direct telomerase activity assay) [1]: 103 % of WT
Substance: hTERT R142E telomerase (ZZ-TEV-3xFlag-hTERT R142E with hTR) (from UniProt O14746 1-1132) (enzyme)

RAP stimulation by PT % of WT (direct telomerase activity assay) [1]: 44 % of WT | RAP stimulation by POT1-TPP1 relative to wild-type telomerase with wild-type POT1-TPP1 (direct telomerase activity assay) [4]: 28% | RAP stimulation by POT1-TPP1 relative to wild-type telomerase with wild-type POT1-TPP1 (direct telomerase activity assay) [5]: 37% | POT1-TPP1 RAP stimulation compared to wild-type telomerase (direct telomerase activity assay) [6]: 61%
Substance: hTERT V144M telomerase (ZZ-TEV-3xFlag-hTERT V144M with hTR) (from UniProt O14746 1-1132) (enzyme)

fraction of nuclei with co-localisation (GFP-TPP1-OB-LacI (human)): 90%
Substance: mCherry-hTERT wild type (with hTR) (from UniProt O14746 1-1132) (enzyme)

RAP stimulation by POT1-TPP1 relative to wild-type telomerase and wild-type TPP1 (direct telomerase activity assay) [2]: < 24% | RAP stimulation by POT1-TPP1 relative to wild-type telomerase and wild-type TPP1 (direct telomerase activity assay) [3]: 78%
Substance: wild-type telomerase (ZZ-TEV-3xFlag-hTERT with hTR) (from UniProt O14746 1-1132) (enzyme)
